Experimental data as given in patent US20250250357A1 (NANJING ZAIMING PHARMACEUTICAL, published 2025).

B1: S009-F7.53.2 (antibody, human IgG1, kappa, V domains shown)
VH: EVQLQQSGPELVKPGASVKIPCKTSGYTFTDYNMDWVKQSHGKSLEWIGDINPNTDGAIYNQKFQNKATLTVDKSSSTAYMELRSLTSEDTAVYYCTRRKLGRKFFDYWGQGTTLTVSS
VL: QIVLTQSPAIMSASPGEQVTMTCSASSSVGYMNWYQQKPGSSPRLLIYDTSNLASGVPVHFSGSGSGTSYSLTISRMEAAFAATYYCQQWYVYPYTFGGGTKLEIKR
notes: Human-murine chimeric antibody, human IgG1 heavy and kappa light constant regions
B2: S009-F7.61.21 (antibody, human IgG1, kappa, V domains shown)
VH: DVQLQQSGPELVEPGASVRIPCKAAGHTFTDYNVDWVKQSHGQSLEWIGDVNPNTDGAIYNQKFEGKATLTVDTSSSTAYMELRSLTSEDTAVYFCARRRLGQGGFDSWGQGTTLTVSS
VL: QVVLTQSPAIMSASPGEKVTLTCGASSSLISKYLYWYQQKPGSSPKLWIYSTSNLASGVPARFSGSGSGTSYSLTISSMEAEDAASYFCHQWSSYPYTFGGGTKVEIKR
notes: as for B1
B3: S009-F7.65.13 (antibody, human IgG1, kappa, V domains shown)
VH: EVQLQQSGPELVKPGTSVKILCKASGDTFTAYNMDWVKQRHGQSLEWIGDINPNTDSTIYNQKFEGKAILTVDKSSSTAYMELRSLTSEDTAVYYCARRKLGRGYFDYWGQGTTLTVSS
VL: QIVLTQSPAIMSASPGEKVTMTCSVNLSVRYIYWYQQKPGSSPRLLIHDTSNLASGVPVRFSGSGSGTSYSLTISRMEAEDAATYYCQQWSSFPYTFGGGTKLEIKR
notes: as for B1
B4: S009-F7.66.12 (antibody, human IgG1, kappa, V domains shown)
VH: QIPLQQSGPELVKPGASVRISCKASDYAFSSSWMNWVKQRPEKGLEWIGRIFVESGNTHYNDKFNGKATLTADKSSRTAYIQLSSLTSEDSAVYFCTRENIFYHGHSSWFAYWGQGTLVTVSA
VL: DIVLTQSPASLVVSLGQRATISCRAGESVDDFGISYVHWYQQKPGQPPKLLIYRAANLESGIPARFSGSGSRTDFTLTINPVETDDVAIYYCQQNNKDPFTFGSGTKLEIKR
notes: as for B1
B5: S009-F7.67.12 (antibody, human IgG1, kappa, V domains shown)
VH: QVQLQQPGTELVKPGASVRLSCRASGYSFSSYWMHWVKQRPGQGLEWLGNINPTTGDINYNEKFRNRATLAVDKSSTTAYLQLTSLTSEDSAVYFCVRHDGFLWGQGTTLTVSS
VL: DIQMTQSPASLSASVGETVTITCRASENIYSYLAWYQQKQGKSPQLLVYYAKTLAEGVSSRFSGSGSGTQFSLKINSLQPEDFGTYYCQHQFGTPRTFGGGTKLEIRR
notes: as for B1
B6: Tab106 (YP218, hIgG1) (antibody, V domains shown)
VH: QQQLEESGGGLVKPEGSLTLTCKASGFDLGFYFYACWVRQAPGKGLEWIACIYTAGSGSTYYASWAKGRFTISKASSTTVTLQMTSLAAADTATYFCARSTANTRSTYYLNLWGPGTLVTVSS
VL: DVVMTQTPASVSEPVGGTVTIKCQASQRISSYLSWYQQKPGQRPKLLIFGASTLASGVPSRFKGSGSGTEYTLTISDLECADAATYYCQSYAYFDSNNWHAFGGGTEVVVRT
notes: Control antibody; YP218 VH and VL recombined into human IgG1 CH and CL expression vectors; also called YP218 human IgG1 antibody
B7: S009-F2.38.12 (antibody, human IgG1, kappa, V domains shown)
VH: QVQLQQPGTELVKPGASVKLSCKASGYTFTSYWMHWVKQRPGQGLEWIGNINPSNGGTNYNEKIKNKATLTVDKSSSTAYMQLSSLTSEDSAVYYCARWNYYGNYPFDYWGQGTTLTVSS
VL: DIVMTQSQKFMSTTVGDRVSITCKASQNVGTAVAWYQQKPGQSPKLLIYSASNRYTGVPDRFTGSGSGTDFTLTISNMQSEDLADYFCQQYSSYPLTFGAGTKLELKR
notes: human-murine chimeric antibody, human IgG1/kappa constant regions
B8: S009-F2.58.8 (antibody, human IgG1, kappa, V domains shown)
VH: QVQLLQSGAELAKPGASVKLSCKASGYTFTSYWVHWVKQRPGQGLEWIGYINPNSGYTKYNQKFKDKATLTADKSSSTAYMQLSSLTYEDSAVYYCADHYYGSSRDYFDYWGQGTTLTVSS
VL: QIVLTQSPAIMSASPGEKVTMTCSASSSVSYMYWYQQRPGSSPRLLIYDTSNLASGVPVRFSGSGSGTSYSLTISRMEAEDAATYYCQQWNSYPYTFGGGTKLEIKR
notes: as for B7

How the values were obtained:
[1] = biological target: T1, human MSLN-R3-his protein (human, UniProt Q13421 487-598); assay: ELISA on coated antigen, antibody 20 nM
T1 construct: it is put last here; also called human MSLN-R3 protein; hMSLN-R3-his; not shown: His tag

[2] = biological target: T2, human MSLN-R2-his protein (human, UniProt Q13421 391-486); assay: ELISA on coated antigen, antibody 20 nM
T2 construct: it is put last here; also called human MSLN-R2 protein; hMSLN-R2-his; not shown: His tag

[3] = biological target: T2, human MSLN-R2-his protein; assay: ELISA on coated antigen, antibody 0.0002 nM
Description: (§1) The plate was sealed with a plastic film and incubated at 4° C. overnight. The next day, the plate was washed twice with PBST, and a blocking buffer [PBS+2% (w/w) BSA] was added for blocking at room temperature for 2 h. The blocking buffer was discarded, and a chimeric antibody or negative control antibody serially diluted from 100 nM was added at 50 μL/well. After incubation at 37° C. for 2 h, the plate was washed 3 times with PBST. […] After incubation at 37° C. for 2 h, the plate was washed 5 times with PBST. A TMB substrate was added at 50 μL/well for incubation at room temperature for 5-10 min, and then a stop solution (1.0 N HCl) was added at 50 μL/well.

[4] = biological target: T1, human MSLN-R3-his protein; assay: ELISA on coated antigen, antibody 2 nM
Description: as §1

[5] = biological target: T2, human MSLN-R2-his protein; assay: ELISA on coated antigen, no antibody (blank, column 'none')
Description: as §1

[6] = biological target: T2, human MSLN-R2-his protein; assay: ELISA on coated antigen, antibody 0.02 nM
Description: as §1

[7] = biological target: T2, human MSLN-R2-his protein; assay: ELISA on coated antigen, antibody 200 nM
Description: as §1

[8] = biological target: T1, human MSLN-R3-his protein; assay: ELISA on coated antigen, antibody 0.02 nM
Description: as §1

[9] = biological target: T1, human MSLN-R3-his protein; assay: ELISA on coated antigen, antibody 0.002 nM
Description: as §1

[10] = biological target: T1, human MSLN-R3-his protein; assay: ELISA on coated antigen, no antibody (blank, column 'none')
Description: as §1

[11] = biological target: T2, human MSLN-R2-his protein; assay: ELISA on coated antigen, antibody 0.2 nM
Description: as §1

[12] = biological target: T1, human MSLN-R3-his protein; assay: ELISA on coated antigen, antibody 0.0002 nM
Description: as §1

[13] = biological target: T1, human MSLN-R3-his protein; assay: ELISA on coated antigen, antibody 0.2 nM
Description: as §1

[14] = biological target: T2, human MSLN-R2-his protein; assay: ELISA on coated antigen, antibody 0.002 nM
Description: as §1

[15] = biological target: T2, human MSLN-R2-his protein; assay: ELISA on coated antigen, antibody 2 nM
Description: as §1

[16] = biological target: T1, human MSLN-R3-his protein; assay: ELISA on coated antigen, antibody 200 nM
[17] = biological target: T3, human MSLN full-length protein (NCBI: AAH09272.1) expressed on HEK293T-hMSLN-B8 cells (human, UniProt Q13421 296-598); assay: FACS on HEK293T-hMSLN-B8 cells
T3 construct: Whole encoded precursor
Description: (§2) The desired cells were expanded to the logarithmic growth phase in a T-75 cell culture flask. […] After the cells from the previous step were subjected to cell counting, the cell pellet was resuspended to 2×10⁶ cells/mL in a blocking buffer of [PBS+2% (w/w) BSA] and added into a 96-well FACS reaction plate at 50 μL/well. A chimeric antibody (a sample to be tested) was added at 50 μL/well, and the plate was incubated on ice for 2 h. […] After the plate was centrifuged and washed 5 times with a PBST buffer, assay and analysis were performed by FACS (FACS CantoII, purchased from BD). Data analysis was performed by software (Flowjo) to obtain the mean fluorescence intensity (MFI) of the cells.

[18] = biological target: T4, human MSLN protein endogenously expressed on OVCAR3 tumor cells (human, UniProt Q13421 296-598); assay: FACS on OVCAR3 cells
T4 construct: whole, on cells; Endogenous target on OVCAR3 cells; kept apart from the recombinant full-length construct; also called mesothelin
Description: as §2

[19] = biological target: T5, human MSLN-R3 protein (Met487-Ser606 of NCBI AAH09272.1) expressed on HEK293T-hMSLN-R3 cells (human, UniProt Q13421 487-606); assay: FACS on HEK293T-hMSLN-R3 cells
T5 construct: also called Region3
T5 sequence (Q13421 495-614): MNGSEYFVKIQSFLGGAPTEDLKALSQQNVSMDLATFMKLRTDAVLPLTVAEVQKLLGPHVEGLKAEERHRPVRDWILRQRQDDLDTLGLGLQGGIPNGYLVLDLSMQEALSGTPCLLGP
Description: as §2

T2 sequence (Q13421 other isoform, or with tags, fused parts or gaps): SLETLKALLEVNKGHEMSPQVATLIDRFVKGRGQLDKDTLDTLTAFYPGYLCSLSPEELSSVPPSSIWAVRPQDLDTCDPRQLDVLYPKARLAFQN
T4 sequence (Q13421 other isoform, or with tags, fused parts or gaps): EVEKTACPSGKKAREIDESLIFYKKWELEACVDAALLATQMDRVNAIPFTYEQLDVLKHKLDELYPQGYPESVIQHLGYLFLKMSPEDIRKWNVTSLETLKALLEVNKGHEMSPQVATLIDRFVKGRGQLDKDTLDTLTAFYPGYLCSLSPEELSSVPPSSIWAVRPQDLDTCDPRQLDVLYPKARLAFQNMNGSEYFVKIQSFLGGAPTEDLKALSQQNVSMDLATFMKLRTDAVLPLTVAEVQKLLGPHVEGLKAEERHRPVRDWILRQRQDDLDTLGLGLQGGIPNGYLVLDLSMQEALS
T1 sequence (Q13421 495-606): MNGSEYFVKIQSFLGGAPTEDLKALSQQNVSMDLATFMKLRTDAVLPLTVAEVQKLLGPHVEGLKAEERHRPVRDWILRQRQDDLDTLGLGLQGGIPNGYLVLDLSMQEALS
T3 sequence (Q13421 other isoform, or with tags, fused parts or gaps limits assumed): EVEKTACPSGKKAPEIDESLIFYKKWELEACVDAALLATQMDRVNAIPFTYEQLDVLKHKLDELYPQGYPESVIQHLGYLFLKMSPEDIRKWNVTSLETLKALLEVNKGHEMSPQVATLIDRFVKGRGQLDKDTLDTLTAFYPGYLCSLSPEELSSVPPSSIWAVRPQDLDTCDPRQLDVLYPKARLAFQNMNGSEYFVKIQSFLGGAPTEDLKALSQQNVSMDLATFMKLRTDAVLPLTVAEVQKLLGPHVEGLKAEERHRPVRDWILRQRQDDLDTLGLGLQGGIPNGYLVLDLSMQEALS

Binder	OD450 [1]	OD450 [2]	OD450 [3]	OD450 [4]	OD450 [5]	OD450 [6]	OD450 [7]	OD450 [8]	OD450 [9]	OD450 [10]	OD450 [11]	OD450 [12]	OD450 [13]	OD450 [14]	OD450 [15]	OD450 [16]	further results
B1	2.42 OD	0.06 OD	0.05 OD	1.71 OD	0.07 OD	0.05 OD	0.08 OD	0.14 OD	0.06 OD	0.06 OD	0.05 OD	0.05 OD	0.5 OD	0.05 OD	0.05 OD	2.69 OD	
B2	2.39 OD	0.06 OD	0.05 OD	2.17 OD	0.07 OD	0.05 OD	0.09 OD	0.17 OD	0.06 OD	0.06 OD	0.05 OD	0.05 OD	0.8 OD	0.05 OD	0.05 OD	2.61 OD	
B3	2.34 OD	0.05 OD	0.05 OD	2.39 OD	0.07 OD	0.05 OD	0.1 OD	0.35 OD	0.14 OD	0.07 OD	0.05 OD	0.07 OD	1.3 OD	0.05 OD	0.05 OD	2.63 OD	
B4	2.37 OD	0.09 OD	0.27 OD	2.25 OD	0.07 OD	0.05 OD	0.28 OD	0.04 OD	0.23 OD	0.06 OD	0.05 OD	0.14 OD	1.95 OD	0.05 OD	0.06 OD	2.6 OD	
B5	2.49 OD	0.07 OD	0.05 OD	2.45 OD	0.06 OD	0.05 OD	0.1 OD	0.69 OD	0.24 OD	0.07 OD	0.06 OD	0.11 OD	1.93 OD	0.05 OD	0.06 OD	2.75 OD	
B6	2.26 OD	2.42 OD	0.12 OD	2.33 OD	0.07 OD	0.17 OD	2.54 OD	0.97 OD	0.65 OD	0.06 OD	0.47 OD	0.35 OD	1.9 OD	0.11 OD	1.42 OD	2.12 OD	
B7																	EC50 [17]: ~0.82 nM; Maximum mean fluorescence intensity [17]: 97700; Maximum mean fluorescence intensity [18]: 4510; Maximum mean fluorescence intensity [19]: 136; binding result [19]: no binding
B8																	EC50 [17]: 3.5 nM; Maximum mean fluorescence intensity [17]: 141000; EC50 [18]: 1.82 nM; Maximum mean fluorescence intensity [18]: 13100; Maximum mean fluorescence intensity [19]: 366; binding result [19]: no binding
